Assay results published in publication PMC11457862.

Assays:
[1] = target: biotinylated human IL-2 (amino acids 1-133, C-terminal biotin acceptor peptide) (human) (UniProt P60568); test: BLI; biotinylated human IL-2, IL-2Rα or IL-2Rβ on streptavidin tips (Octet Red96); soluble analyte in PBSA (PBS pH 7.2, 0.1% BSA), 300 s association; kinetic fit, 1:1 binding model; IL-2/602 Cx 2:1 by the legend (Supplemental Figure 2, Supplemental Table 1)
[2] = target: T1, biotinylated human IL-2Rβ ectodomain (amino acids 1-214) (human) (UniProt P14784); test: BLI; same set-up as a1; equilibrium titration of the response at the end of the association phase, first-order fit (Figures 2 and 3, Supplemental Table 1)
T1 sequence (chain, biotin on the biotin acceptor peptide (BirA ligase)): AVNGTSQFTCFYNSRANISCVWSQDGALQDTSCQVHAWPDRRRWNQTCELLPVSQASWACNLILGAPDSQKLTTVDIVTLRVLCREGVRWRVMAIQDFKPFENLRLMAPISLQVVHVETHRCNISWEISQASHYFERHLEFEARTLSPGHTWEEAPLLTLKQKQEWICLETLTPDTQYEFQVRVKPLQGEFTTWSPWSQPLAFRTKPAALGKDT

[3] = target: biotinylated human IL-2 (amino acids 1-133, C-terminal biotin acceptor peptide) (human) (UniProt P60568); test: as above
[4] = target: biotinylated human IL-2Rα ectodomain (amino acids 1-217) (human); test: as above
[5] = target: T1, biotinylated human IL-2Rβ ectodomain (amino acids 1-214) (human); test: BLI; biotinylated human IL-2, IL-2Rα or IL-2Rβ on streptavidin tips (Octet Red96); soluble analyte in PBSA (PBS pH 7.2, 0.1% BSA), 300 s association; kinetic fit, 1:1 binding model; IL-2/602 Cx 2:1 by the legend (Supplemental Figure 2, Supplemental Table 1)
[6] = target: T1, biotinylated human IL-2Rβ ectodomain (amino acids 1-214) (human); test: BLI; same set-up as a3; equilibrium titration, first-order fit (Supplemental Figure 4A-C, Supplemental Table 4)
[7] = target: biotinylated human IL-2 (amino acids 1-133, C-terminal biotin acceptor peptide) (human) (UniProt P60568); test: as above
[8] = target: T1, biotinylated human IL-2Rβ ectodomain (amino acids 1-214) (human); test: BLI; biotinylated human IL-2 or IL-2Rβ on streptavidin tips; engineered 602 IC variants and controls in PBSA; kinetic fit, 1:1 binding model (Supplemental Figure 5, Supplemental Table 4)
[9] = target: biotinylated human IL-2 (amino acids 1-133, C-terminal biotin acceptor peptide) (human) (UniProt P60568); test: BLI; same set-up as a5; equilibrium titration, first-order fit (Supplemental Figure 6C,D, Supplemental Table 5)
[10] = target: biotinylated mouse IL-2Rβ (mouse) (UniProt P16297); test: BLI; biotinylated mouse IL-2Rα or IL-2Rβ on streptavidin tips; ICs or 602 Ab in PBSA; kinetic fit, 1:1 binding model (Supplemental Figure 6E,F, Supplemental Table 1)
[11] = target: biotinylated mouse IL-2Rα (mouse) (UniProt P01590); test: as above
[12] = target: biotinylated mouse IL-2Rβ (mouse) (UniProt P16297); test: BLI; same set-up as a7; equilibrium titration, first-order fit (Supplemental Figure 6G,H, Supplemental Table 1)
[13] = target: biotinylated human IL-2Rα ectodomain (amino acids 1-217) (human); test: BLI; biotinylated human IL-2, IL-2Rα or IL-2Rβ on streptavidin tips (Octet Red96); soluble analyte in PBSA (PBS pH 7.2, 0.1% BSA), 300 s association; kinetic fit, 1:1 binding model; IL-2/602 Cx 2:1 by the legend (Supplemental Figure 2, Supplemental Table 1)
[14] = target: biotinylated human IL-2 (amino acids 1-133, C-terminal biotin acceptor peptide) (human) (UniProt P60568); test: BLI; biotinylated human IL-2 or IL-2Rβ on streptavidin tips; engineered 602 IC variants and controls in PBSA; kinetic fit, 1:1 binding model (Supplemental Figure 5, Supplemental Table 4)

Chain of IL-2/602 complex (human IL-2 mixed with 602 antibody) (VH): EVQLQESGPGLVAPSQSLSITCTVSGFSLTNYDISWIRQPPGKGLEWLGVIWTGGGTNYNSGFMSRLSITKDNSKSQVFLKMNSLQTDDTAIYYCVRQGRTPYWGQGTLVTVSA
Chain of IL-2/602 complex (human IL-2 mixed with 602 antibody) (VL): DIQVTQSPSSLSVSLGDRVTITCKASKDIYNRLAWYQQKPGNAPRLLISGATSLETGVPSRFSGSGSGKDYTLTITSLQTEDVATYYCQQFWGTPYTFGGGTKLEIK
Chain of biotinylated mouse IL-2Rβ (mouse) (P16297 27-539): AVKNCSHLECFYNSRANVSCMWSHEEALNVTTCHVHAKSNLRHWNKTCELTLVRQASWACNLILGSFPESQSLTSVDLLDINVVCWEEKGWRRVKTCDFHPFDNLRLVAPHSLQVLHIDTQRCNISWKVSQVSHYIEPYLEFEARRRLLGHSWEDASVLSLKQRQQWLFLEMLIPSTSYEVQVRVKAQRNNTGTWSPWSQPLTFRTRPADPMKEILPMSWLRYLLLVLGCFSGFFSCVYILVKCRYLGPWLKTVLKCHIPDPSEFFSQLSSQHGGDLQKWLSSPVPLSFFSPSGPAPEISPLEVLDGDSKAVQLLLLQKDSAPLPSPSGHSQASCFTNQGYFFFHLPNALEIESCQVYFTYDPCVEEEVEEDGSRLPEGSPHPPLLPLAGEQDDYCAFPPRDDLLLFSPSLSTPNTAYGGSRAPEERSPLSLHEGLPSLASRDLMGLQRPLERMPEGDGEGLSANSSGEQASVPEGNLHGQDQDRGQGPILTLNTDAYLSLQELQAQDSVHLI
Chain of biotinylated mouse IL-2Rα (mouse) (P01590 22-268): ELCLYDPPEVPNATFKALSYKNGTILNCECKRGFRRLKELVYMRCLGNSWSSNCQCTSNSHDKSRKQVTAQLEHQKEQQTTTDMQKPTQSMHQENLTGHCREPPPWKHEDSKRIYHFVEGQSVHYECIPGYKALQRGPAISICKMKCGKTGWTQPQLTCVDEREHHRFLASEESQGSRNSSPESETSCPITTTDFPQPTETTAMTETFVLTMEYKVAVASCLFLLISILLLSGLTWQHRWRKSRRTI

Substance	Kd [1]	Kd [2]	Kd [3]	Kd [4]	Kd [5]	Kd [6]	Kd [7]	Kd [8]	Kd [9]	Kd [10]	Kd [11]	Kd [12]	Kd [13]	Kd [14]
602 immunocytokine with 15-amino-acid linker (IL-2-(G4S)3-602 light chain + 602 heavy chain) (from UniProt P60568 21-153)	88.3 nM	8.4 nM	905 nM	> 2000 nM	–	–	–	–	–	–	–	–	–	–
602 immunocytokine with 25-amino-acid linker (IL-2-(G4S)5-602 light chain + 602 heavy chain) (from UniProt P60568 21-153)	76.9 nM	–	941 nM	> 2000 nM	3.66 nM	–	–	–	–	–	–	–	–	–
IL-2/602 complex (human IL-2 mixed with 602 antibody) (from UniProt P60568 21-153)	10.6 nM	5.2 nM	103 nM	–	3.89 nM	6 nM	74 nM	0.3 nM	168 nM	–	–	–	0.55 nM	13.3 nM

The next lines start with the values.

Kd [1]	Kd [2]	Kd [3]	Kd [4]	Kd [5]	Kd [6]	Kd [7]	Kd [8]	Kd [9]	Kd [10]	Kd [11]	Kd [12]	Kd [13]	Kd [14]	Substance
143 nM	5 nM	> 2000 nM	> 2000 nM	4.22 nM	5.4 nM	> 2000 nM	0.26 nM	> 2000 nM	–	–	–	–	–	602 immunocytokine with 35-amino-acid linker (IL-2-(G4S)7-602 light chain + 602 heavy chain) (from UniProt P60568 21-153)
–	–	> 2000 nM	5.2 nM	0.18 nM	–	–	–	> 2000 nM	> 10000 nM	4.74 nM	> 10000 nM	–	–	Control immunocytokine (IL-2-(G4S)7-light chain of anti-fluorescein antibody 4-4-20 + 4-4-20 heavy chain) (from UniProt P60568 21-153)
–	–	–	7.3 nM	–	–	–	–	–	–	–	–	3.2 nM	–	human IL-2 (amino acids 1-133), soluble (from UniProt P60568 21-153) (ligand)
